The values that follow are results of earlier work, collected in article PMC3312455.

The Kd is the equilibrium constant for the complex coming apart.

Several values for one entry are separate records, joined by “and”; a condition that tells them apart may be missing. Equal values may be shown once.

Experiment in all cases: SPR
Series [1] addresses PDGFRβ ECD (Homo sapiens) (UniProt P09619).
Series [2] concerns the target PDGFRα ECD (Homo sapiens) (UniProt P16234).
For series [3], the target named is FGFR2-IIIb ECD (Homo sapiens) (UniProt P21802).
FGFR2-IIIb ECD (Homo sapiens), sequence (P21802 22-377): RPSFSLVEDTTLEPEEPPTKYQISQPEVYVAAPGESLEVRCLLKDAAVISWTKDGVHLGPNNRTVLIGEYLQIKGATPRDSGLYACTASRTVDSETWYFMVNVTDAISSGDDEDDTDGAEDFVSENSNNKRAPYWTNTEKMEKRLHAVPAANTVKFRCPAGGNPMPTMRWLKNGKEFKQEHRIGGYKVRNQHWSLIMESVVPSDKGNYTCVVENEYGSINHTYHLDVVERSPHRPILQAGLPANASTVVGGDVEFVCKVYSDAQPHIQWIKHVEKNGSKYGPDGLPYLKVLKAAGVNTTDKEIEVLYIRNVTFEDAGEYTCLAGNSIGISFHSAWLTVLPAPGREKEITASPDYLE
Series [4] deals with FGFR1-IIIc ECD (Homo sapiens) (UniProt P11362).
FGFR1-IIIc ECD (Homo sapiens), sequence (P11362 22-376): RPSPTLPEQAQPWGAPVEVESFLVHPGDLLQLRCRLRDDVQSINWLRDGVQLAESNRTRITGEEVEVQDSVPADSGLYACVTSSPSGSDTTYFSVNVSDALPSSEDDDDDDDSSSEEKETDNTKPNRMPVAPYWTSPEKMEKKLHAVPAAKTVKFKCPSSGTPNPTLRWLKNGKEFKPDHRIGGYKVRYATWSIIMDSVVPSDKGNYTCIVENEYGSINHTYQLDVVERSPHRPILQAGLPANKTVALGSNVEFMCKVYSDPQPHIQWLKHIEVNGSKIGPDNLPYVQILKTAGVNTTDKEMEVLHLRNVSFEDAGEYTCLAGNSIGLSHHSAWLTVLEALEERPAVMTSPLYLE
The target in series [5] is FGFR2-IIIb D2-D3 (Homo sapiens) (UniProt P21802).
Series [6] deals with FGFR3-IIIc D2-D3 (Homo sapiens) (UniProt P22607).
For series [7], the target named is FGFR3-IIIc D1-D3 (Homo sapiens) (UniProt P22607).
For series [8], the target named is αvβ3 integrin receptor (Homo sapiens) (UniProt P06756).
Series [9] has as its target agrin (UniProt O00468).
For series [10], the target named is FGFR1-IIIc D2-D3 (Homo sapiens) (UniProt P11362).
FGFR1-IIIc D2-D3 (Homo sapiens), sequence (P11362 142-365): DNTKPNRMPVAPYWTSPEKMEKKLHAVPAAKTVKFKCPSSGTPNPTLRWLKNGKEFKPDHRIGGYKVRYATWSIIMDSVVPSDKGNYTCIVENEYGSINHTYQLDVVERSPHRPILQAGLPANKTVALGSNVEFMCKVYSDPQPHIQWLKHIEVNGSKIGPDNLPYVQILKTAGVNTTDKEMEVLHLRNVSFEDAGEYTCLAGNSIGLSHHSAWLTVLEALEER
Series [11] concerns the target FGFR1-IIIc D1-D3 (Homo sapiens) (UniProt P11362).
Series [12] deals with c-MET ECD (Homo sapiens) (UniProt P08581).
c-MET ECD (Homo sapiens), sequence (P08581 25-932): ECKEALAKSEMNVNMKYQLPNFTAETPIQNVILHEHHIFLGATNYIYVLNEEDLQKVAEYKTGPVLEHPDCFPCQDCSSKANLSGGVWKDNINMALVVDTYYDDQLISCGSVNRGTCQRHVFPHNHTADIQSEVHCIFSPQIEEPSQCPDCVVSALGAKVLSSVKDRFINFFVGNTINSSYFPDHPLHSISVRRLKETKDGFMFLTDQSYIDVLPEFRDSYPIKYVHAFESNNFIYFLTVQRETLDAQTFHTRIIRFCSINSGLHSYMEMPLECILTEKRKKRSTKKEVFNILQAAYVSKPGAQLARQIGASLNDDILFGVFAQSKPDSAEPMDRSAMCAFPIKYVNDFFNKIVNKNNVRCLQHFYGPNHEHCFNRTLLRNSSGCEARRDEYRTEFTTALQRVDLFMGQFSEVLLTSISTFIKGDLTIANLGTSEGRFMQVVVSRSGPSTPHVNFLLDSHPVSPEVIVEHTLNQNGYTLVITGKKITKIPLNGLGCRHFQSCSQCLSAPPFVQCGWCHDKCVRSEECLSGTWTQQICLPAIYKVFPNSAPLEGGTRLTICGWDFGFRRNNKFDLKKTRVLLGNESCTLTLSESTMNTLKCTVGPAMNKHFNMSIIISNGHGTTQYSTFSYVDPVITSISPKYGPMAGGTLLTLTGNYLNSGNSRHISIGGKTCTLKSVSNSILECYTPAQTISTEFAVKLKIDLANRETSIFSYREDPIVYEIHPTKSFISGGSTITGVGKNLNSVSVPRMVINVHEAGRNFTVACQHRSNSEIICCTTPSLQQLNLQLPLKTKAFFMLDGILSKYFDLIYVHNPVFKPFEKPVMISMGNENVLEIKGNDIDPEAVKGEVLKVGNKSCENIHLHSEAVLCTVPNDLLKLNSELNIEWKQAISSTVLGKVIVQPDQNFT
The target in series [13] is Neuropilin-1 ECD (Homo sapiens) (UniProt O14786).
The target in series [14] is VEGFR1/Flt ECD (Homo sapiens) (UniProt P17948).
VEGFR1/Flt ECD (Homo sapiens), sequence (P17948 27-758): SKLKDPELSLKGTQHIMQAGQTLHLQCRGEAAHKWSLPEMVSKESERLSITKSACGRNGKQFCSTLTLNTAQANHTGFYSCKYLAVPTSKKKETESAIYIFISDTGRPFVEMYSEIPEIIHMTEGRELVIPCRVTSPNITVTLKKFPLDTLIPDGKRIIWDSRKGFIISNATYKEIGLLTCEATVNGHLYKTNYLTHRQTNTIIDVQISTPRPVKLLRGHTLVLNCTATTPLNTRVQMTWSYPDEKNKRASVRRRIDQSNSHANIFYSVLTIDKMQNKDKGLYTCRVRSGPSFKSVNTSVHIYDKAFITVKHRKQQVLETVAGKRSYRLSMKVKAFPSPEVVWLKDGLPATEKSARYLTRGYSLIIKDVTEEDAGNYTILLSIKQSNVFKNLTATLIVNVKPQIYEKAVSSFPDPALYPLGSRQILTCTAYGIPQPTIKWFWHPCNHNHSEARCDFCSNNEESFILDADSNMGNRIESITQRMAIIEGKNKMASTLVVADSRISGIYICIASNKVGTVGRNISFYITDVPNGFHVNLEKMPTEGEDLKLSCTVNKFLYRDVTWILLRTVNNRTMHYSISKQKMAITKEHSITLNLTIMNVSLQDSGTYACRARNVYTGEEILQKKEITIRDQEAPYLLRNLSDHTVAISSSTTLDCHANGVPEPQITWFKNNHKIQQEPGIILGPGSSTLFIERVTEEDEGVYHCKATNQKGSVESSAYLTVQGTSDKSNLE

VEGF-A165, sequence (P15692 whole entry): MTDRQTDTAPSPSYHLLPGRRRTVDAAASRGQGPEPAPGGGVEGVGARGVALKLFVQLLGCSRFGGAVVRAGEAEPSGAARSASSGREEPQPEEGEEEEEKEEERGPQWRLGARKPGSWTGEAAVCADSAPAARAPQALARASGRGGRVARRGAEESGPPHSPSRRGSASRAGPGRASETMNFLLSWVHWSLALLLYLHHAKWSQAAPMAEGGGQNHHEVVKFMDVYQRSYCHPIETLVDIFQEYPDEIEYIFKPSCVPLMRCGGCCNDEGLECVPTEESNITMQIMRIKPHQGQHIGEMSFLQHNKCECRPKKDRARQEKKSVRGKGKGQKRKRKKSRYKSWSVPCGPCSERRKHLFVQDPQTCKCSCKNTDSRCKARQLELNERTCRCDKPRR
FGF1, sequence (P05230 16-155): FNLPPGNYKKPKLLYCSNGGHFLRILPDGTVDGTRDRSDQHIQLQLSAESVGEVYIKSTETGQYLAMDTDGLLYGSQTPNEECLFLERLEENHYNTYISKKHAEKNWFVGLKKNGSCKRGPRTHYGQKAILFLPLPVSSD
FGF2, sequence (P09038 143-288): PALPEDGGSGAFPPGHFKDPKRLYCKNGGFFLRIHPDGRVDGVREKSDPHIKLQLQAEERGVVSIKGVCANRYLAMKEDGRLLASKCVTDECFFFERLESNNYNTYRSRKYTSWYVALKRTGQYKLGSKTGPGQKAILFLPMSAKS
FGF4, sequence (P08620 31-206): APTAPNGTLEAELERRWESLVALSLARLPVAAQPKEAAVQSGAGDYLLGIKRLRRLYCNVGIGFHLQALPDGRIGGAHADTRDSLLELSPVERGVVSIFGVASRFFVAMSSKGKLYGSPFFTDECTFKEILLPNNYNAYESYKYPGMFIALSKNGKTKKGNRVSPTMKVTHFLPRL
PDGFRα ECD (Homo sapiens), sequence (P16234 24-528): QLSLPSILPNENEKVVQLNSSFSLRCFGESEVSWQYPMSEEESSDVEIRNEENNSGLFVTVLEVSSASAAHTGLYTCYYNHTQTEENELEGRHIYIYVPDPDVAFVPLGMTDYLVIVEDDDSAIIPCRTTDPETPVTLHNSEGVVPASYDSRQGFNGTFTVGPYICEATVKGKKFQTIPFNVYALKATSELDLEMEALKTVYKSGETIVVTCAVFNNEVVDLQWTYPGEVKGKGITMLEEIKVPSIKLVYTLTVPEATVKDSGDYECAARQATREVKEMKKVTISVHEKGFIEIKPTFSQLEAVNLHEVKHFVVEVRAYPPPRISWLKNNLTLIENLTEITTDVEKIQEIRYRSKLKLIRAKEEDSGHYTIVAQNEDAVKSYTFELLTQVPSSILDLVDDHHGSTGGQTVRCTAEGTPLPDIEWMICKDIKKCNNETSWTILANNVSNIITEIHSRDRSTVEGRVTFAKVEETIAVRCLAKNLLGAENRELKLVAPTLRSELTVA
HGF, sequence (P14210 32-494): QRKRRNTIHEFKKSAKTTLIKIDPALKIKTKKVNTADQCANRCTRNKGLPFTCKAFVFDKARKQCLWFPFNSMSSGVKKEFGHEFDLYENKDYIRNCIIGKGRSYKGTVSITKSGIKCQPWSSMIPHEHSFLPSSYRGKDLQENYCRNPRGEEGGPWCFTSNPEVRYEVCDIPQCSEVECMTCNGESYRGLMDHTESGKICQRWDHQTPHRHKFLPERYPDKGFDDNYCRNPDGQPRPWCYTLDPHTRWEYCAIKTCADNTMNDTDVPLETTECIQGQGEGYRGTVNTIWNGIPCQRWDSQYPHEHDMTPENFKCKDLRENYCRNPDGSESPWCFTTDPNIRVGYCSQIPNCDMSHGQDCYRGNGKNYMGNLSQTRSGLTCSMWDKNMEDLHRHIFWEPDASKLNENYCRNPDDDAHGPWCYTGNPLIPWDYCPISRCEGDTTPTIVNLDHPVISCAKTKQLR
HGF, sequence (P14210 495-728): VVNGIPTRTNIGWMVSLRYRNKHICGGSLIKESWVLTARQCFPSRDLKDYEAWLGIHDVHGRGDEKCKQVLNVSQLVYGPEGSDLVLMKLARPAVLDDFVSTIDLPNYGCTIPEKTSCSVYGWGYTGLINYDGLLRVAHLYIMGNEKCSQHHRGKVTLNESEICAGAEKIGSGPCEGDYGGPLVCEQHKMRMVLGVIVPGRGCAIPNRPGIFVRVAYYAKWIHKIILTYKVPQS
PDGF-BB, sequence (P01127 82-190): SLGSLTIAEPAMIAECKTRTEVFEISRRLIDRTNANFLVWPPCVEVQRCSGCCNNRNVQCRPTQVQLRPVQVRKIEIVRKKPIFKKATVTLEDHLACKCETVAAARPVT
HIV-Tat, sequence (P04326 whole entry): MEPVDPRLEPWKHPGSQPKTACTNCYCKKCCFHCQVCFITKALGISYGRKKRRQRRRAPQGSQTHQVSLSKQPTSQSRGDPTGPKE

In the case of PDGF-AA (from UniProt P04085), the figures for the Kd in series [1] and in series [2] were 453 nM and 13.4 nM, respectively.

PDGF-BB (from UniProt P01127): the Kd in series [2] is 150 nM.

Regarding FGF1 (from UniProt P05230), the Kd was 0.8 nM in series [3]; 35 nM in series [4]; 59.6 nM in [5]; 230 nM in series [6]; 916 nM in [7]; 1100 nM in series [8].

With FGF2 (from UniProt P09038), the dissociation constant Kd in series [3] is 0.5 nM; in [9] it was 2.5 nM; in series [10] it was 62 nM; in series [11], 99 nM.

Turning to HGF (from UniProt P14210), in series [12], the Kd is 50 nM and 90 nM.

Turning to HIV-Tat (from UniProt P04326), the Kd in [8] is 32 nM.

Turning to VEGF-A165 (from UniProt P15692), the equilibrium dissociation constant (Kd) is 2000 nM in series [13]; 0.007 nM and 0.03 nM in [14].

Take FGF4 (from UniProt P08620): the Kd was 0.42 nM in series [3] and 165 nM in series [10].
